The data set “cross-linking” deals with the molecule itself. As to the kind of experiment: cross-linking.
In data set [1] the target is HCoV-OC43 N233-300 (central linker) (Human coronavirus OC43, UniProt P33469 233-300). As to the kind of experiment: SPR. (Surface plasmon resonance follows binding to a sensor surface in real time, without labels.)
The target of data set [2] is HCoV-OC43 N1-173 (N-terminal domain) (Human coronavirus OC43, UniProt P33469 1-173). As to the kind of experiment: SPR.
The target in data set [3] is HCoV-OC43 N301-448 (C-terminal domain) (Human coronavirus OC43, UniProt P33469 301-448). As to the kind of experiment: SPR.

In general, Kd refers to the concentration at which binding is half-saturated. Read a high Kd as weaker binding.

Chain of HCoV-OC43 N1-173 (N-terminal domain) (P33469 1-173): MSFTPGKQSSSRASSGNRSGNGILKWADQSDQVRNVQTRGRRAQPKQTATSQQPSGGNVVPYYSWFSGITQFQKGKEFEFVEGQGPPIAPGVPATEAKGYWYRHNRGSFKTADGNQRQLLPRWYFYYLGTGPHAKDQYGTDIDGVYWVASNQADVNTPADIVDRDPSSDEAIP

B1: HCoV‐OC43 N protein, residues 233–448 (domain or fragment)
chain: ADQIASLVLAKLGKDATKPQQVTKHTAKEVRQKILNKPRQKRSPNKQCTVQQCFGKRGPNQNFGGGEMLKLGTSDPQFPILAELAPTAGAFFFGSRLELAKVQNLSGNPDEPQKDVYELRYNGAIRFDSTLSGFETIMKVLNENLNAYQQQDGMMNMSPKPQRQRGHKNGQGENDNISVAVPKSRVQQNKSRELTAEDISLLKKMDEPYTEDTSEI
As for B1, in the data set “cross-linking”, the binding result was “binds”.

UCUAAACUCUAAACUCUAAACUCUAAAC (ssRNA) [(UCUAAAC)4 intergenic repeat RNA]: the dissociation constant Kd in data set [1] is 64.1 ± 7.2 nM; in data set [2], 68.9 ± 8.4 nM. The binding result in data set [3] is “no binding”.

The values are drawn from article PMC2788276 (Protein Science : A Publication of the Protein Society, 2009).
